Blank lines part the entries; values can stand above or below the binder they belong to.
Assays:
[1] = molecular target: T1, mouse complement component 5 (C5) (Mus musculus, strain , UniProt P06684); test: SPR; Biacore T200; BB5.1 immobilised on CM5 chip by amine coupling (~200 RU); mouse C5 flowed at 52-4 nM in HBS-EP (10 mM HEPES, 150 mM NaCl, 0.05% surfactant P20), 30 µl/min, 25°; Langmuir 1:1 binding model; details: both partners purified
T1 construct: complement C5 beta chain (80 000 MW), mouse, cut from the C5 precursor; complement C5 alpha chain (115 000 MW), mouse, cut from the C5 precursor; also called mouse C5; intact C5; source: purified in-house

[2] = molecular target: T2, human complement component 5 (C5) (Homo sapiens, UniProt P01031); test: ELISA; direct ELISA; plates coated with mouse or human C5 (0.5 µg/ml, bicarbonate buffer pH 9.6); BB5.1 intact mAb 5-0 µg/ml or Fab 20-0 µg/ml in 0.2% BSA-PBS, 1 hr at 37°; HRP-labelled secondary antibody; details: both partners purified
T2 construct: complement C5 beta chain, human, cut from the C5 precursor; complement C5 alpha chain, human, cut from the C5 precursor; also called human C5; source: purified in-house
T2 sequence (P01031 whole entry, looked up): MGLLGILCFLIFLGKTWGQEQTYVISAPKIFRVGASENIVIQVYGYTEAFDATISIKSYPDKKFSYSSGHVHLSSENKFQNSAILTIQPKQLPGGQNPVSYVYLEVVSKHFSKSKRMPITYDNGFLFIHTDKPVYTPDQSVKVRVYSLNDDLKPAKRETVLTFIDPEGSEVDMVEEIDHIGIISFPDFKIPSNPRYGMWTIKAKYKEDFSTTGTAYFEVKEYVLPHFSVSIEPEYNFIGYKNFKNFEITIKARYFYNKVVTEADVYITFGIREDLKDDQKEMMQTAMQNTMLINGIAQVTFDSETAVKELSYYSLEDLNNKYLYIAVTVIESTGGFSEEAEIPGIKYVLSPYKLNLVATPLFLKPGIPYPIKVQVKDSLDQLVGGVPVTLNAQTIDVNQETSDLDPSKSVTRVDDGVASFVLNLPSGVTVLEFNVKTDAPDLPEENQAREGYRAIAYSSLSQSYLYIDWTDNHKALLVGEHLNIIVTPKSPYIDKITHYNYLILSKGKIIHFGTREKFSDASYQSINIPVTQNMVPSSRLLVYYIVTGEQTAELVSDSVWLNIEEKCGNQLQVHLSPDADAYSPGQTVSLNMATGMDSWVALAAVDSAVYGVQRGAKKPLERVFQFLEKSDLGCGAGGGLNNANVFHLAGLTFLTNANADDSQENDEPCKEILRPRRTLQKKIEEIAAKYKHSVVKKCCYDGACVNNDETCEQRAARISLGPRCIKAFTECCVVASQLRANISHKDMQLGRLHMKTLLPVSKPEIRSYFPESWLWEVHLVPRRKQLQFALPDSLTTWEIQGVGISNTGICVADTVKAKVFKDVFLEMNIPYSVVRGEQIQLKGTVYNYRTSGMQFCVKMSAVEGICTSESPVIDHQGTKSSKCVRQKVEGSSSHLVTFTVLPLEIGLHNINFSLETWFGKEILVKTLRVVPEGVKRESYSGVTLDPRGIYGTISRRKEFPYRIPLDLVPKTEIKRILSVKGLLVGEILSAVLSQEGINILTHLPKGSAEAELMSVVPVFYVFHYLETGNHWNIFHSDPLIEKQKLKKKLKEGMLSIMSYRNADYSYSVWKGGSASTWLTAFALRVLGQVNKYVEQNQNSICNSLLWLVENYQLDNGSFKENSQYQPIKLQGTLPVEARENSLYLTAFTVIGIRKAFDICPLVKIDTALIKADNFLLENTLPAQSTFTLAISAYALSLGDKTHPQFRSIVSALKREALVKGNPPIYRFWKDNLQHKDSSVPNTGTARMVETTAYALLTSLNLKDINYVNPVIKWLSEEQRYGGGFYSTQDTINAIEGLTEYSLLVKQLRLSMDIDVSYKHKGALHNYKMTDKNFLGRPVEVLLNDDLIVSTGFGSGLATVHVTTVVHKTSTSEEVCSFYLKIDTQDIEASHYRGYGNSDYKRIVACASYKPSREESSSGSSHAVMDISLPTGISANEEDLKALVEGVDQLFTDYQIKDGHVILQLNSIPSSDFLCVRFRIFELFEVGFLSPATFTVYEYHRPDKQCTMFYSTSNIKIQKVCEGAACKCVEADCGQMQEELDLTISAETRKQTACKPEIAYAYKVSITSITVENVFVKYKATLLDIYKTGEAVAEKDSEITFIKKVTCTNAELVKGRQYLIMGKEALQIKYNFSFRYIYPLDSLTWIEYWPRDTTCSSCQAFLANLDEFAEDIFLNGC

Kd [1]: 8.1 nM
koff [1]: 0.0013 s⁻¹
binding result [2]: no binding (tested: 5 µg/ml)
B1: BB5.1 anti-C5 monoclonal antibody (intact mAb) (antibody, V domains shown)
VH: QVQLQQPGAELVRPGTSVKLSCKASGYTFTSSWMHWVKQRPGQGLEWIGVIDPSDSYTNYNQKFKGKATLTVDTSSSTAYMQLSSLTSEDSAVYYCARGGGSSYNRYFDVWGTGTTVTVSS
VL: NIMMTQSPSSLAVSAGEKVTMSCKSSQSVLYSSNQKNYLAWYQQKPGQSPKLLIYWASTRESGVPDRFTGSGSGTDFTLTISSVQAEDLAVYYCHQYLSSRTFGGGTKLEIK
notes: full variable heavy domain; full variable light domain; raised in C5-deficient mice; also called BB5.1 mAb; full-length BB5.1; source: BB5.1 hybridoma (re-cloned), purified on HiTrap Protein G sepharose

binding result [2]: no binding (tested: 20 µg/ml)
B2: BB5.1 Fab fragments (Fab, V domains shown)
VH: B1 VH
VL: B1 VL
notes: as the VH of m1; as the VL of m1; Fab of a mouse IgG1, kappa antibody; also called BB5.1-derived Fab fragment; source: immobilized ficin digestion of purified BB5.1 mAb; Fc-containing proteins removed on Protein A or G column
